Several values for one entry are separate records, joined by “and”; a condition that tells them apart may be missing. Identical values can stand only once.
What was measured:
[1] = target: Theileria parva schizont antigen Tp2, bacterially expressed recombinant protein with His-tag (Theileria parva (Muguga)); assay: SEC-MALS; apparent dimer fraction from preparative SEC; FPLC (Shimadzu) with Wyatt scattering and refractive index detectors
[2] = target: Theileria parva schizont antigen Tp2, bacterially expressed recombinant protein with His-tag (Theileria parva (Muguga)); assay: SEC; preparative SEC (Generon ProteoSEC 3-70 kD) after affinity chromatography; 20 mM PO4, 250 mM NaCl, 0.02% NaN3, pH 7.5; apparent masses from elution times

stoichiometry N [1]: 2
stoichiometry N [2]: 4 and 2
Substance: Theileria parva schizont antigen Tp2, bacterially expressed recombinant protein with His-tag (natural protein)
